Values joined by “and” are separate entries in the source; they are usually repeats but may differ in a detail not shown here. Equal entries are not always repeated.
Conditions: Bos taurus, pH 7, Thermal, DSC, phosphate 10 mM, transition: 3, reversible: no, whole UniProt chain shown

B1: Tubulin--tyrosine ligase wild type, P38584 (protein)
chain: MYTFVVRDENSSVYAEVSRLLLATGHWKRLRRDNPRFNLMLGERNRLPFGRLGHEPGLMQLVNYYRGADKLCRKASLVKLIKTSPELAESCTWFPESYVIYPTNLKTPVAPAQDGIHPPLHSSRTDEREFFLASYNRKKEEGEGNVWIAKSSAGAKGEGILISSDATELLDFIDNQGQVHVIQKYLERPLLLEPGHRKFDIRSWVLVDHQFNIYLYREGVLRTASEPYHMDNFQDKTCHLTNHCIQKEYSKNYGKYEEGNEMFFEAFNRYLTSALNITLESSILLQIKHIIRSCLMSVEPAISTKHLPYQSFQLFGFDFMVDEELKVWLIEVNGAPACAQKLYAELCQGIVDIAIASVFPPPDAEQQPPQPATFIKL
What does the source list for B1?
Tm (Mg++ 30 nM): 51.1 °C; unfolding enthalpy (calorimetric) (Mg++ 30 nM): 160 kcal/mol; unfolding enthalpy (calorimetric) (Mg++ 35 nM): 38 kcal/mol and 84 kcal/mol; unfolding enthalpy (calorimetric) (Mg++ 40 nM): 31 kcal/mol and 84 kcal/mol; Tm (Mg++ 182 nM): 49.9 °C; unfolding enthalpy (calorimetric) (Mg++ 182 nM): 158 kcal/mol; Tm (Mg++ 2.3 micro M): 54.6 °C; unfolding enthalpy (calorimetric) (Mg++ 2.3 micro M): 173 kcal/mol; Tm (Mg++ 4.5 micro M): 54.8 °C; unfolding enthalpy (calorimetric) (Mg++ 4.5 micro M): 173 kcal/mol; Tm (Mg++ 160 micro M): 55.8 °C; unfolding enthalpy (calorimetric) (Mg++ 160 micro M): 150 kcal/mol; Tm (Mg++ 280 micro M): 55.6 °C and 54.2 °C; unfolding enthalpy (calorimetric) (Mg++ 280 micro M): 186 kcal/mol and 200 kcal/mol

Reference: FireProtDB (doi:10.1074/jbc.273.1.167)
